These results are taken from patent EP4296674A1 (Université Toulouse III - Paul Sabatier, dated 2023).

The labels stand for the following.
B1: HadA of Mycobacterium tuberculosis fused to an enhanced Green Fluorescent Protein (eGFP) tag at its N-terminus (other)
chain: MALSADIVGMHYRYPDHYEVEREKIREYAVAVQNDDAWYFEEDGAAELGYKGLLAPLTFICVFGYKAQAAFFKHANIATAEAQIVQVDQVLKFEKPIVAGDKLYCDVYVDSVREAHGTQIIVTKNIVTNEEGDLVQETYTTLAGRAGEDGEGFSDGAA

Experiment [1] has as its target N-terminal polyHis-tagged HadD of Mycobacterium tuberculosis (Mycobacterium tuberculosis). Kind of experiment: from the HadBD crystal structure.
For experiment [2] the target is unchanged. Nature of the experiment: PDBePISA analysis of the HadBD crystal structure.
For experiment [3], the target named is HadB protein of Mycobacterium tuberculosis (untagged) (Mycobacterium tuberculosis).
Experiment [4] has as its target T1, HadD of M. bovis BCG (BCG_0547c) (Mycobacterium bovis BCG, UniProt P64726 1-166).
T1 sequence: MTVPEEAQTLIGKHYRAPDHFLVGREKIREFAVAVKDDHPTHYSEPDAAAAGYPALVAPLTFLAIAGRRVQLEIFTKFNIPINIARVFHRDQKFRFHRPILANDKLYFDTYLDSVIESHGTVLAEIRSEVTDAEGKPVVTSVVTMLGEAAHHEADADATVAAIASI
Kind of experiment: pull-down from M. bovis BCG on anti-GFP magnetic beads, nanoLC-MS/MS proteomics.

A further experiment has as its target T2, HadC (Rv0637) (Mycobacterium tuberculosis, UniProt P9WFJ9 1-166).
T2 sequence: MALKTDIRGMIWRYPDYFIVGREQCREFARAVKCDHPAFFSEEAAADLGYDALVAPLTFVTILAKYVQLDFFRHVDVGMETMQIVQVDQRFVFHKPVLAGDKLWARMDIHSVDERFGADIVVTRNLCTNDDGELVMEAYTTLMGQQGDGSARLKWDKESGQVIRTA
The description is as above.

For experiment [5], the target named is B1. The experiment is described as above.
Experiment [6] concerns the target T3, HadD-Ctrp fusion protein (C-terminal fragment of S. cerevisiae Trp1p fused to the C-terminal end of HadD of … (Mycobacterium tuberculosis (HadD); …).
T3 chain: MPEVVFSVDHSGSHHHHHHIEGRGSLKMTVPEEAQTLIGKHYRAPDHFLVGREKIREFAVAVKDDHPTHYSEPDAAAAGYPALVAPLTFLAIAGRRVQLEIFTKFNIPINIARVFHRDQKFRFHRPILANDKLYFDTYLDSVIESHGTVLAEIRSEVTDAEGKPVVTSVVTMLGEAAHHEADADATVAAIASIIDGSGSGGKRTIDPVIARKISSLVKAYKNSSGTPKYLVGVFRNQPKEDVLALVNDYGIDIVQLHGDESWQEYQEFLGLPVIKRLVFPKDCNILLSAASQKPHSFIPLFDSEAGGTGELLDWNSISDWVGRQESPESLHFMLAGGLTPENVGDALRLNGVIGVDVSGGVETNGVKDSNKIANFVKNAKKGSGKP
Kind of experiment: split-Trp assay in M. smegmatis ΔhisA.

The target of a further experiment is T4, HadC-Ctrp fusion protein (Mycobacterium tuberculosis (HadC); …).
T4 chain: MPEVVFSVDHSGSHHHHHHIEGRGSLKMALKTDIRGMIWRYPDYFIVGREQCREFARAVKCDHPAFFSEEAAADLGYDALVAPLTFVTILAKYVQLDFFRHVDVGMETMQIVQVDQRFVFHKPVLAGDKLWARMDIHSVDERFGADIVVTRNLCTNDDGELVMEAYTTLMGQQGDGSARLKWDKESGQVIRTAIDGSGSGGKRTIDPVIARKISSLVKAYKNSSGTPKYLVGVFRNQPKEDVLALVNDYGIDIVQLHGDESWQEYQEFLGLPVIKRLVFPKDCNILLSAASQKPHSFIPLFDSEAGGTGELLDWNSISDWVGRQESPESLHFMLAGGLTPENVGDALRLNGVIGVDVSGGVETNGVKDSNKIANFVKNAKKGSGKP
Kind of experiment: split-Trp assay in M. smegmatis ΔhisA, positive control pair.

Experiment [7] concerns the target T3, HadD-Ctrp fusion protein (C-terminal …). Kind of experiment: split-Trp assay in M. smegmatis ΔhisA, growth on medium without Trp.
For experiment [8], the target named is T5, Cfp10-Ctrp fusion protein (Mycobacterium tuberculosis (Cfp10); …).
T5 chain: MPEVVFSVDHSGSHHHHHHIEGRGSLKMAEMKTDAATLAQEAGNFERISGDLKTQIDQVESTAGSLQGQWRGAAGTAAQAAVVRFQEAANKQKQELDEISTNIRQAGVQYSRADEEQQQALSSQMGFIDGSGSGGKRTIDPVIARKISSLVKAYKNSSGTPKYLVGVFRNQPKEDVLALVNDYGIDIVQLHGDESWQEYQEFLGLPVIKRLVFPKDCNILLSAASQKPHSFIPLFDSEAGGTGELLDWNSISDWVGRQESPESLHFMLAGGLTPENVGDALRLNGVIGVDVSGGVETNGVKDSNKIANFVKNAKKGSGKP
Kind of experiment: split-Trp assay in M. smegmatis ΔhisA, positive control pair.

As to “HadB protein of Mycobacterium tuberculosis (untagged) (enzyme)”, the total buried surface at each heterodimer interface in [1] worked out at 3840 A^2. In experiment [2], this molecule had a surface of heterodimerization (PDBePISA) of 1340 Å^2 and a ΔG of heterodimerization (PDBePISA) of -11 kcal/mol. Further, in experiment [3], the buried surface area is 525 A^2 and the ΔG (PDBePISA) was -5.8 kcal/mol.

As for B1, the binding result (in [4]; with HadC (Rv0637)) was “binds” each time.

B2: HadB protein of Mycobacterium tuberculosis (untagged) (enzyme)
chain: MALREFSSVKVGDQLPEKTYPLTRQDLVNYAGVSGDLNPIHWDDEIAKVVGLDTAIAHGMLTMGIGGGYVTSWVGDPGAVTEYNVRFTAVVPVPNDGKGAELVFNGRVKSVDPESKSVTIALTATTGGKKIFGRAIASAKLA
For the molecule B2, the binding result in experiment [5] is recorded as “binds”.

B3: Ntrp-HadB fusion protein (N-terminal fragment of S. cerevisiae Trp1p fused to the N-terminal end of HadB of Mtb) (other)
chain: MPEVVFSVDHSGSGTMYPYDVPDYASSVINFTGSSGPLVKVCGLQSTEAAECALDSDADLLGIICVPNRGGSGSGLKMALREFSSVKVGDQLPEKTYPLTRQDLVNYAGVSGDLNPIHWDDEIAKVVGLDTAIAHGMLTMGIGGGYVTSWVGDPGAVTEYNVRFTAVVPVPNDGKGAELVFNGRVKSVDPESKSVTIALTATTGGKKIFGRAIASAKLA
With B3, the binding result (in [6]; with HadC-Ctrp fusion protein) was “binds” in each case.

B4: Ntrp-HadDMtb fusion protein (other)
chain: SSVINFTGSSGPLVKVCGLQSTEAAECALDSDADLLGIICVPNRMTVPEEAQTLIGKHYRAPDHFLVGREKIREFAVAVKDDHPTHYSEPDAAAAGYPALVAPLTFLAIAGRRVQLEIFTKFNIPINIARVFHRDQKFRFHRPILANDKLYFDTYLDSVIESHGTVLAEIRSEVTDAEGKPVVTSVVTMLGEAAHHEADADATVAAIASI
Regarding B4, the binding result in experiment [7] is listed as “no binding”.

B5: Ntrp-Esat6 fusion protein (other)
chain: MPEVVFSVDHSGSGTMYPYDVPDYASSVINFTGSSGPLVKVCGLQSTEAAECALDSDADLLGIICVPNRGGSGSGLKMTEQQWNFAGIEAAASAIQGNVTSIHSLLDEGKQSLTKLAAAWGGSGSEAYQGVQQKWDATATELNNALQNLARTISEAGQAMASTEGNVTGMFA
For the molecule B5, the binding result in experiment [8] is given as “binds”.
